The record followed here is paper PMC11065122 (Journal of the American Chemical Society, 2023).

In general, Kd refers to the concentration at which binding is half-saturated. Higher therefore signals weaker binding.

One assay has as its target MP^A S7ADPr1. The assay is described as follows: fluorescence polarisation. In general terms: Fluorescence polarisation rises when a labelled molecule tumbles more slowly, as on binding a larger partner.
The target in a further assay is MP^(A (E9D)) D9ADPr1. The assay is described as follows: fluorescence polarisation.
In a further assay the target is MP^A E9ADPr1. The assay is described as follows: fluorescence polarisation.
For another assay, the target named is MP^A R5ADPr1. The assay is described as follows: fluorescence polarisation.
Another assay deals with PARP14^cat. The assay is described as follows: PARP14cat mono-ADP-ribosylation of substrate peptides, RP-HPLC/MS. The class given is biochemical. As to conditions: after PARP14^cat reaction condition optimization, NAD+, listed as MP^B.

With “pan-ADP-ribose detection reagent (an Af1521 macrodomain-Fc region fusion) (Fc fusion)”, the dissociation constant (Kd) came to 1170 nM with MP^A S7ADPr1, 1810 nM in the assay with MP^(A (E9D)) D9ADPr1, 732 nM in the assay with MP^A E9ADPr1 and 15.6 nM in the assay with MP^A R5ADPr1.
Take GWTARKSAEVGAGK [MP^A]: in the assay with PARP14^cat, the “conversion to mono-ADP-ribosylated product (ADPr1)” value is on record as “no activity was detected”.
